One assay addresses T1, Mouse ST2 (mouse, UniProt P14719 27-332, limits assumed).
T1 construct: also called mouse ST2 protein
T1 sequence (looked up): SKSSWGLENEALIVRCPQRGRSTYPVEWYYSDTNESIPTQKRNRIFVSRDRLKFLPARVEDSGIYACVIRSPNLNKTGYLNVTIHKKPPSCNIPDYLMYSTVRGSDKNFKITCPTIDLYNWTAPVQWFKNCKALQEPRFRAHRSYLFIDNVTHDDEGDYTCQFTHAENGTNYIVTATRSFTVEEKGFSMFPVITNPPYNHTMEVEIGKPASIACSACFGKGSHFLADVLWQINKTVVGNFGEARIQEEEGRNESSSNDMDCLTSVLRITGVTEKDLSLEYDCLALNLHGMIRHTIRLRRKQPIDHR
As to the kind of experiment: SPR (Carterra), antibody immobilized, ST2 analyte, 1:1. Here is the method:
(§1) Binding of the reformatted human ST2 antibodies to the human and mouse ST2 proteins was evaluated by surface plasmon resonance (SPR), using a high throughput antibody screening and characterization platform from Carterra (Salt Lake City, Utah).

The target of the next assay is T2, Human ST2 (human, UniProt Q01638 19-328, limits assumed).
T2 construct: also called human ST2 protein; Interleukin 1 receptor-like 1
T2 sequence (looked up): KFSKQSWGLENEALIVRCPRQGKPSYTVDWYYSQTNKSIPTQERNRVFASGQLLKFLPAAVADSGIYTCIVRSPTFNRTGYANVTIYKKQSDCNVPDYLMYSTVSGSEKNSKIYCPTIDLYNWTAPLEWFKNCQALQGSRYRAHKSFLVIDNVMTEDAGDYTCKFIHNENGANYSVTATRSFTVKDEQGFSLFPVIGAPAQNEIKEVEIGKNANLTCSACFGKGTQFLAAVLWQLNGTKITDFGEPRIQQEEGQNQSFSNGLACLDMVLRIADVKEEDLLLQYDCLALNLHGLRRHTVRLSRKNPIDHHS
Described as above. Here is the method: as §1

B1: Human ST2 IgG1 Antibody 109 (antibody, V domains shown)
VH: QVQLVQSGAEVKKPGSSVKVSCKASGYRFTDYYIHWVRQAPGQGLEWMGIIQPTGGGTTYAQKFQGRVTITADESTSTAYMELSSLRSEDTAVYYCARVGATVTKNYYYYYGMDVWGQGTTVTVSS
VL: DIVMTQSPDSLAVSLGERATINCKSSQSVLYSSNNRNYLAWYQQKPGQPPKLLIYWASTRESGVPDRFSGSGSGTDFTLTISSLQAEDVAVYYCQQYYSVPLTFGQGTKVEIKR
notes: IgG1, kappa
In the case of B1, in the assay with Mouse ST2, the Kd (as a rule, the concentration at which binding is half-saturated) is 1.1 nM; the koff (usually the rate constant with which the complex falls apart) was determined as 0.0013 s⁻¹; the kon (in general, the rate constant with which the complex forms) turned out to be 1.1e+06 M⁻¹ s⁻¹. Further, in the assay with Human ST2, the Kd amounted to 10 nM, the off-rate constant (koff) came to 0.0061 s⁻¹ and the kon was 600000 M⁻¹ s⁻¹.
